Where two headings read alike, the source gives them in different places.
Key:
[1] = molecular target: T1, recombinant hFcRn-his/B2M heterodimer protein (Acrobio, Cat #FCM-H82W4) (human, UniProt P55899 24-297; P61769 21-119); test: BLI (Gator) at pH 6.0, hFcRn-his/B2M on anti-his sensor, antibody analyte
T1 construct: Bought heterodimer

membrane hIL-36R [2] = molecular target: T2, membrane hIL-36R (human, UniProt Q9HB29 20-575); test: cell-based or functional assay
T2 sequence: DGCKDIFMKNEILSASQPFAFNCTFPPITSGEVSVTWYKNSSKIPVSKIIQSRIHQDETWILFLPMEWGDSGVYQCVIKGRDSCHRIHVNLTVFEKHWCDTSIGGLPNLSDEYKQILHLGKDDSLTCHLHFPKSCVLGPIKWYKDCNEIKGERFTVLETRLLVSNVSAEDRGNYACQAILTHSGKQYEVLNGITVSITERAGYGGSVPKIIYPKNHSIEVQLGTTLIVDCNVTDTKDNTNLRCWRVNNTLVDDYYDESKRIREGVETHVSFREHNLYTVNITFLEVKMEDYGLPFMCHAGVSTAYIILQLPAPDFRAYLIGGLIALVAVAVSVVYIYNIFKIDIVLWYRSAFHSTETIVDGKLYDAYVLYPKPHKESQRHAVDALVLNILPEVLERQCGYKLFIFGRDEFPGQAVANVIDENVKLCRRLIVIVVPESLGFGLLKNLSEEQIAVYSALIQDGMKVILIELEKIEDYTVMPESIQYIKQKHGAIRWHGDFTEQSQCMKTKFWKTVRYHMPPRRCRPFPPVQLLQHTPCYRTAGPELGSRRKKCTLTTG

membrane mouse IL-36R = molecular target: T3, membrane mouse IL-36R (mouse, UniProt Q9ERS7 22-574); test: flow cytometry on HEK293 cells transfected with mouse IL-36R
T3 construct: whole, on cells; also called mouse IL-36R on HEK293 cells transfected with pcDNA3.1-musIL36R
T3 sequence (looked up): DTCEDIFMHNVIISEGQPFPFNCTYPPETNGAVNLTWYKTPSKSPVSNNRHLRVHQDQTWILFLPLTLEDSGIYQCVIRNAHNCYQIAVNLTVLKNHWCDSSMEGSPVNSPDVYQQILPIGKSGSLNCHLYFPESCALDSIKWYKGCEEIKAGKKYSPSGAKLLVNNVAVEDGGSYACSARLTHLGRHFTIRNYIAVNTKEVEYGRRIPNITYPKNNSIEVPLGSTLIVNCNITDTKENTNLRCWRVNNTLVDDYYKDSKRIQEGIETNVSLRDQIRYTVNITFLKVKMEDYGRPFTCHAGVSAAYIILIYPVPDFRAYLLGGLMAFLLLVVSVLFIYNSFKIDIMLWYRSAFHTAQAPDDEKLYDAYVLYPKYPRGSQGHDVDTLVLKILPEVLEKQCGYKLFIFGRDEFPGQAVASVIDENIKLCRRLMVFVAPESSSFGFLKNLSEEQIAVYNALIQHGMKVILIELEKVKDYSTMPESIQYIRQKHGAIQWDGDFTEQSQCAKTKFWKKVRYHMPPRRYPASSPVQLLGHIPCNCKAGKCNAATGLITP

membrane hIL-36R [3] = molecular target: T2, membrane hIL-36R; test: cell-based or functional assay; remark: listed apart in the source
membrane hIL-36R [4] = molecular target: T2, membrane hIL-36R; test: flow cytometry on HEK293 cells transfected with hIL-36R, FITC anti-hIgG
[5] = molecular target: T4, Recombinant hIL-36R protein (Acrobio, Cat #IL2-H52H6) (human, UniProt Q9HB29 20-335); test: BLI (Gator)
T4 construct: Bought soluble protein; also called recombinant human IL-36R protein
T4 sequence: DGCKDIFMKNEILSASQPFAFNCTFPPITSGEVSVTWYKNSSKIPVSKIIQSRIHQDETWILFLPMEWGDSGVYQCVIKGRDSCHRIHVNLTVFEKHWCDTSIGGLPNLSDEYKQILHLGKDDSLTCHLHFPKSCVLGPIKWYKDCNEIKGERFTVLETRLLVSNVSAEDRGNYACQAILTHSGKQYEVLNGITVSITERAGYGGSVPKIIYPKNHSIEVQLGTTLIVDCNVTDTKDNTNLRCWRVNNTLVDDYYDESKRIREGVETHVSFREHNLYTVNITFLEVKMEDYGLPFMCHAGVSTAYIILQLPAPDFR

recombinant hIL-36R-his = molecular target: T5, recombinant hIL-36R-his (human, UniProt Q9HB29 20-337); test: ELISA on coated recombinant hIL-36R-his, HRP anti-hIgG
T5 construct: Residues 1-337 (extracellular domain) are stated for the IL-36R-his used as immunogen; The range includes the signal peptide; no cleavage site is stated; also called recombinant hIL36R protein; recombinant human IL-36R-his protein; not shown: His tag
T5 sequence: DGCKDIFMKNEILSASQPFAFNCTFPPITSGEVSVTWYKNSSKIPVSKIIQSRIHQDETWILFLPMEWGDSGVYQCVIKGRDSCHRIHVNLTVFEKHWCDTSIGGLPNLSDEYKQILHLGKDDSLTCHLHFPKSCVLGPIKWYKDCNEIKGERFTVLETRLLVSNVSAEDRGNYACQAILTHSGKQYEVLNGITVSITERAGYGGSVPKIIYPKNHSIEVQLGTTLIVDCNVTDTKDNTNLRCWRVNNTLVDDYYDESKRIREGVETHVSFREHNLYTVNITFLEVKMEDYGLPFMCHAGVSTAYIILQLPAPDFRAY

[6] = molecular target: T4, Recombinant hIL-36R protein (Acrobio, …); test: SPR (Biacore T200, 25 C), antibody captured by Fc, hIL-36R analyte
[7] = molecular target: T6, Recombinant hIL1R1 protein (human, UniProt P14778 18-332, limits assumed); test: ELISA on coated hIL1R1
T6 sequence (looked up): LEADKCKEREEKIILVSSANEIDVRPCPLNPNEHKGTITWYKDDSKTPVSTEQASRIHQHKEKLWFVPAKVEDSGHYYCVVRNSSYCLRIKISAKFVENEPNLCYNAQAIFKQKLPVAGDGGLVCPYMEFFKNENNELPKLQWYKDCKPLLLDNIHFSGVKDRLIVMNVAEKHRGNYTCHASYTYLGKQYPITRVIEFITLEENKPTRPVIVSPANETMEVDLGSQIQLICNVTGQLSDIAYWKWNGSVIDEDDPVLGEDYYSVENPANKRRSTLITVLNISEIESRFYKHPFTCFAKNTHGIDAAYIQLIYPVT

[8] = molecular target: T7, Recombinant cynomolgus IL36R protein (Acrobio, Cat #IL2-C52H5) (cynomolgus, UniProt A0A2K5WSK9 20-335); test: BLI, antibody on Protein A sensor, recombinant cynomolgus IL36R as analyte
T7 construct: Bought; also called cyno IL-36R
T7 sequence: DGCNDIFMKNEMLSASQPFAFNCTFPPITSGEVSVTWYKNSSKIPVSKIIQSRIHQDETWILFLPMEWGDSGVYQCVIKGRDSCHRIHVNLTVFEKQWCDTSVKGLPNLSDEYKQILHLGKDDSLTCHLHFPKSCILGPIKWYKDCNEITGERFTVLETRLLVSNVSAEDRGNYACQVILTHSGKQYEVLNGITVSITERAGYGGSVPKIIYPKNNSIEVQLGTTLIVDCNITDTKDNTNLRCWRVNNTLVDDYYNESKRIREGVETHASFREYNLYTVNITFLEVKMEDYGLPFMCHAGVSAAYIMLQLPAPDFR

[9] = molecular target: T4, Recombinant hIL-36R protein (Acrobio, …); test: BLI as in Example 2, antibody on Protein A sensor, hIL-36R analyte
[10] = molecular target: T8, mouse IL-36R (R&D, Cat #2354-RP) (mouse, UniProt Q9ERS7 22-338, limits assumed); test: BLI, antibody on Protein A sensor, recombinant mouse IL-36R as analyte
T8 construct: Bought; also called recombinant mouse IL-36R protein
T8 sequence (looked up): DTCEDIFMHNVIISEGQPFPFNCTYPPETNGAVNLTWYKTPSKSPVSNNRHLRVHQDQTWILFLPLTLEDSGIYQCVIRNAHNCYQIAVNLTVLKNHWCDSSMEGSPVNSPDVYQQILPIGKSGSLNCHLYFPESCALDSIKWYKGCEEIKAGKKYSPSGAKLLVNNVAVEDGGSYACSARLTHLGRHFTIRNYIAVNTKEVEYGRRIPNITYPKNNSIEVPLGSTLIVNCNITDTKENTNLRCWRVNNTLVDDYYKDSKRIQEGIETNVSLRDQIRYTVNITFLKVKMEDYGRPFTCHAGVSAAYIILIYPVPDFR

membrane hIL-36R [11] = molecular target: T2, membrane hIL-36R; test: cell-based or functional assay; remark: listed apart in the source

T1 sequence (P55899 24-297 limits assumed, chain 1 of 2): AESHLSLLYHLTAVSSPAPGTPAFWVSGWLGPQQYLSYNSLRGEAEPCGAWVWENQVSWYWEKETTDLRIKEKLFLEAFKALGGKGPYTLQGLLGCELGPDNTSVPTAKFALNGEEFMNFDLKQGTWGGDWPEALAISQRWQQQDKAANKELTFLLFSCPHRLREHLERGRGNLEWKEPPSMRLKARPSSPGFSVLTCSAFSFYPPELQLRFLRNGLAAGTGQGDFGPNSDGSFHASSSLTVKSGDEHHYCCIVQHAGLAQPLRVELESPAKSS
T1 sequence (P61769 21-119 limits assumed, chain 2 of 2): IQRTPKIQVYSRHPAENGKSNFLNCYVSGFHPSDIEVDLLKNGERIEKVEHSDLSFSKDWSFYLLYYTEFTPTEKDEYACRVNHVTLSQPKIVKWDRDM

B1: 5F7-2a8 (antibody, human IgG4 S228P, kappa)
heavy: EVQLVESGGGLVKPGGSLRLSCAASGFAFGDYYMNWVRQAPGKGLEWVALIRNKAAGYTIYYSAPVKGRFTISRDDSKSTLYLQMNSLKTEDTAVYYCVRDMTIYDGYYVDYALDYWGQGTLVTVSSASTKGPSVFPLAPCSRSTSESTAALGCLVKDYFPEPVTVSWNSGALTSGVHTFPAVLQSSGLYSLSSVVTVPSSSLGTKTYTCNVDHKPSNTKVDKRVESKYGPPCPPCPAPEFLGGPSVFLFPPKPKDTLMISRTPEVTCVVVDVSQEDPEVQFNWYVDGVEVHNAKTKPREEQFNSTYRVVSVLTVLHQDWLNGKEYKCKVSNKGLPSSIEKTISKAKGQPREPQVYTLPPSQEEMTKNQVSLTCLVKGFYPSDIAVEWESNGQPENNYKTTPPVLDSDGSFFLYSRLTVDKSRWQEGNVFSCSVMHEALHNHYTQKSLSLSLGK
light: DIVMTQSPSSVSASVGDRVTITCRASRNINIWLSWYQQKPGKAPKLFIYKASNLHTGVPSRFSGSGSGTDFTLTISSLQPEDFATYYCLQSQSYPLTFGQGTKLEIKRTVAAPSVFIFPPSDEQLKSGTASVVCLLNNFYPREAKVQWKVDNALQSGNSQESVTEQDSKDSTYSLSSTLTLSKADYEKHKVYACEVTHQGLSSPVTKSFNRGEC
notes: also called 5F7-2a8-WT; 5F7-WT
- Kd [1]: 168 nM
- koff [1]: 0.0507 s⁻¹
- kon [1]: 301000 M⁻¹ s⁻¹
- IC50, IL-36R reporter assay: inhibition of ligand induced luminescence in Jurkat-IL36R-IL1Racp-NFkB-luc cells (membrane hIL-36R [2]): 0.0237 µg/mL
- binding result (membrane mouse IL-36R): no binding
- IC50, IL-36α induced IL-6 release in HEK cells (membrane hIL-36R [3]): 0.11 µg/mL
- IC50, IL-36α induced IL-8 release in A431 cells (membrane hIL-36R [3]): 0.195 µg/mL
- IC50, IL-36α induced IL-8 release in HDF cells (membrane hIL-36R [3]): 0.00696 µg/mL
- IC50, IL-36α induced IL-8 release in HEK cells (membrane hIL-36R [3]): 0.129 µg/mL
- IC50, IL-36α induced TNF-a release in HEK cells (membrane hIL-36R [3]): 0.0535 µg/mL
- IC50, IL-36β induced IL-6 release in HEK cells (membrane hIL-36R [3]): 0.0188 µg/mL
- IC50, IL-36β induced IL-8 release in A431 cells (membrane hIL-36R [3]): 0.111 µg/mL
- IC50, IL-36β induced IL-8 release in HEK cells (membrane hIL-36R [3]): 0.0481 µg/mL
- IC50, IL-36β induced TNF-a release in HEK cells (membrane hIL-36R [3]): 0.0235 µg/mL
- IC50, IL-36γ induced IL-6 release in HEK cells (membrane hIL-36R [3]): 0.0446 µg/mL
- IC50, IL-36γ induced IL-8 release in A431 cells (membrane hIL-36R [3]): 0.00877 µg/mL
- IC50, IL-36γ induced IL-8 release in HEK cells (membrane hIL-36R [3]): 0.0326 µg/mL
- IC50, IL-36γ induced TNF-a release in HEK cells (membrane hIL-36R [3]): 0.00526 µg/mL
- EC50 (membrane hIL-36R [4]): 0.146 µg/mL
- Kd [5]: < 0.1 nM
- kon [5]: 47100 M⁻¹ s⁻¹
- EC50 (recombinant hIL-36R-his): 0.00947 µg/mL
- Kd [6]: 1.52 nM
- koff [6]: 4.48e-05 s⁻¹
- kon [6]: 29500 M⁻¹ s⁻¹
- binding result [7]: no binding

B2: 5F7-hu-3 (antibody, V domains shown)
VH: QVQLVESGGGLVKPGGSLRLSCAASGFAFTDYYMNWIRQAPGKGLEWVALIRNKAAGYTIYYSDSVKGRFTISRDNAKSSLYLQMNSLRAEDTAVYYCVRDMTIYDGYYVDYALDYWGQGTLVTVSS
VL: DIVMTQSPSSVSASVGDRVTITCRASQNINIWLSWYQQKPGKAPKLFIYKASNLHTGVPSRFSGSGSGTDFTLTISSLQPEDFATYYCLQSQSYPLTFGQGTKLEIK
notes: Humanized 5F7; also called humanized 5F7
- binding result [8]: no binding (tested: up to 100 nM IL-36R)
- Kd [9]: 4.55 nM
- koff [9]: 0.000194 s⁻¹
- kon [9]: 42700 M⁻¹ s⁻¹
- binding result [10]: no binding (tested: up to 100 nM IL-36R)
- IC50, IL-36R reporter assay: inhibition of ligand induced luminescence in Jurkat-IL36R-IL1Racp-NFkB-luc cells (membrane hIL-36R [11]): 0.0637 µg/mL

— US20250002593A1 (INMAGENE PTE, published 2025)
